Consider four molecules from patent US12630630 (SHANGHAI HENLIUS BIOTECH, dated 2026).

The target in the test is T1, CD47 on human cells (Raji, Jurkat, red blood cells) (human, UniProt Q08722 19-311).
T1 construct: Endogenous CD47 on Raji, Jurkat and red blood cells; also called IAP; MER6
Description: flow cytometry competition: antibody and a fixed concentration of biotin-human SIRPα-Fc co-incubated with CD47-expressing cells (Jurkat in Example 2; the legend also names Raji), streptavidin-PE. The protocol:
Example 2. […] CD47-expressing cells (Jurkat) (1E5 cells/well) were washed and resuspended in FACS buffer (1×PBS with 2% FBS). […] Flow cytometric analyses were performed using the Cytomics FC 500 (Beckman Coulter Inc.).
IgG isotype control (an anti-PD1 antibody) were used as a negative control.
Background: Flow cytometry measures light scatter and fluorescence of single cells or particles in a stream.

B1: Clone M1 (antibody, human IgG4 S228P, lambda, V domains shown)
VH: QVQLQQWGAGLLKPSETLSLTCAVYGGSFSGYYWSWIRQPPGKGLEWIGEINHSGSTNYNPSLKSRVTISVDTSKNQFSLRLSSVTAADTAMYYCARFTGRPYYGMDVWGQGTTVTVSS
VL: LSYELTQPPSVSATPGQRVTISCSGSESNIGSHKVKWYQQFAGAAPRLLIHGNDQRRSGVPDRFSGSKSGTSASLAISGLQSEDEADYYCAAWDDSLNGRVFGGGTKLTVLG
notes: also called antibody clone M1
Take B1: the “IC50 (read off the curve)” value was about 1 µg/mL.

B2: Clone M1 #46 (antibody, human IgG4 S228P, lambda, V domains shown)
VH: QVQLQQWGAGLLKPSETLSLTCAVYGGSFSGYYWSWIRQPPGKGLEWIGEINHSGSTNYNPSLKSRVTISVDTSKNQFSLRLSSVTAADTAMYYCARFSGRPYYGMDVWGQGTTVTVSS
VL: LSYELTQPPSVSATPGQRVTISCSGSESNIGSHKVKWYQQFAGAAPRLLIHGNDQRRSGVPDRFSGSKSGTSASLAISGLQSEDEADYYCAAWDDSLYGRVFGGGTKLTVLG
For the molecule B2, the “IC50 (read off the curve)” value is about 0.2 µg/mL.

B3: Clone M1 #21 (antibody, human IgG4 S228P, lambda, V domains shown)
VH: QVQLQQWGAGLLKPSETLSLTCAVYGGSFSGYYWSWIRQPPGKGLEWIGEINQSGSTNYNPSLKSRVTISVDTSKNQFSLRLSSVTAADTAMYYCARFTGRPYYGMDVWGQGTTVTVSS
VL: LSYELTQPPSVSATPGQRVTISCSGSESNIGSHKVKWYQQFAGAAPRLLIHGNDQRFSGVPDRFSGSKSGTSASLAISGLQSEDEADYYCAAWDDSLYGRVFGGGTKLTVLG
For B3, the “IC50 (read off the curve)” value is about 0.08 µg/mL.

B4: Clone M1 #11 (antibody, human IgG4 S228P, lambda, V domains shown)
VH: QVQLQQWGAGLLKPSETLSLTCAVYGGSFSGYYWSWIRQPPGKGLEWIGEINHSGSTNYNPSLKSRVTISVDTSKNQFSLRLSSVTAADTAMYYCARFHGRPYYGMDVWGQGTTVTVSS
VL: LSYELTQPPSVSATPGQRVTISCSGSESNIGSHKVKWYQQFAGAAPRLLIHGNDQRRRGVPDRFSGSKSGTSASLAISGLQSEDEADYYCAAWDDSLYGRVFGGGTKLTVLG
Turning to B4, the “IC50 (read off the curve)” value is about 0.06 µg/mL.
